Experimental data published in PMC10053369, “Recombinant Analogs of Sea Anemone Kunitz-Type Peptides Influence P2X7 Receptor Activity in Neuro-2a Cells” (Marine Drugs, 2023).
Positions of bridges follow the written chain, without caps; N, C: chain ends. No end group written: not given here.

What was measured:
Neuro-2a cells [1] = test: Cytoprotection against ATP-induced cell death (MTT assay); type: cell-based, mouse; conditions: 4 mM ATP, 48 h
Procedure: (§1) Neuro-2a neuroblastoma cells (ATCC® CCL-131™) were obtained from American Type Culture Collection (Manassas, VA, USA). The cells were cultivated in DMEM medium (BioloT, St. Petersburg, Russia) supplemented with 10% of fetal bovine serum (BioloT, St. Petersburg, Russia) and 1% penicillin/streptomycin (BioloT, St. Petersburg, Russia) at 37 °C and 5% CO2. Initially, cells were incubated in cultural flasks until sub-confluent (~80%). For testing, Neuro-2a cells were seeded in 96-well plates and experiments were started after 24 h.
The cytoprotective effect of peptides was assessed in Neuro-2a cells using the MTT assay. In brief, an aliquot (180μL) of cell suspension with a nominal cell density of 3 × 10^4 cells/well was dispensed into 96-well plates. The cells were incubated for 24 h in a humidified atmosphere containing 5% CO2 to allow cell attachment. At the end of the preincubation period, ATP (Sigma-Aldrich, St. Louis, MO, USA) was added to the cells at a concentration of 4 mM. Studied peptides were added to the cells at concentrations of 0.1, 1.0 or 10.0 μM for 1h prior to the addition of ATP. After incubation for 48 h at 37 °C cell viability was detected using the MTT as described previously. The standard P2X7 inhibitor, A438079 (Sigma-Aldrich, St. Louis, MO, USA), at a concentration of 10 μM was used as a positive control.
(§2) All data were obtained in three independent replicates and calculated values were expressed as mean ± standard error of the mean (SEM). The Student’s t-test was performed using SigmaPlot 14.0 (Systat Software Inc., San Jose, CA, USA) to determine statistical significance.

P2X7 in Neuro-2a cells = test: ATP-induced Ca2+ influx (Fluo-8 AM); type: cell-based, mouse; conditions: 1 mM ATP
Procedure: as §1
(§3) Neuro-2a cells were seeded in 96-well plates at a density of 4 × 10^4 cells/well and incubated in DMEM for 24 h at 37 °C, 5% CO2. Then the cells were washed twice with culture medium and loaded with 5 μM Fluo-8 AM (Abcam, Cambridge, UK) dye and 1 μM Pluronic® F-127 (Sigma-Aldrich, St. Louis, MO, USA), and incubated for 40 min at 37 °C in HBSS: 140 mM NaCl, 5 mM KCl, 0.8 mM MgCl2, 2 mM CaCl2, 10 mM glucose, 10 mM HEPES, pH 7.4. Then the cells were washed two times with the same solution but without the fluorescent dye and treated with the studied peptides for 30 min at RT in the dark. In some experiments Ca^2+-free medium was used: 140 mM NaCl, 5 mM KCl, 0.8 mM MgCl2, 10 mM glucose, 10 mM HEPES, 5 mM EGTA, pH 7.4. ATP (1 mM final concentration) was added using a microinjector (20 μL/well) 10 s later the baseline recording and the readings were taken up to 50 s in 1 s intervals. The standard P2X7 inhibitor, A438079 (Sigma-Aldrich, St. Louis, MO, USA), was used as inhibitory control. Ionomycin (Sigma-Aldrich, St. Louis, MO, USA) and BHQ were used to generate a generic calcium signal in cells. 2,5,-di(t-butyl) hydroquinone (BHQ) was synthesized and kindly provided by Dr. Polonik S.N. (PIBOC FEBRAS). Fluo-8 was excited at 485 nm, and the emission at 520 nm was measured with a PHERAstar®FS plate reader (BMG LABTECH, Ortenberg, Germany). The data were processed by MARS Data Analysis v. 3.01R2 (BMG Labtech, Ortenberg, Germany). Mean values and standard error of peak height calcium were calculated.
as §2

Neuro-2a cells [2] = test: [Ca2+]i in Ca2+-free medium (Fluo-8 AM); type: cell-based, mouse; conditions: for [Ca2+]i in Ca-free medium: ionomycin 10 μM in the presence of ATP 1 mM, or BHQ 50 μM, n = 6
Procedure: as §3
The following supporting information can be downloaded at: https://www.mdpi.com/article/10.3390/md21030192/s1, Figure S1: The RP-HPLC elution profiles of Kunitz peptides: HCRG1 (a), HCRG2 (b), and HCRG7 (c), on a Jupiter C4 column (Phenomenex, USA), equilibrated by 0.1% TFA, in a gradient of acetonitrile concentration (0–70%) for 70 min at 1.5 mL/min. MALDI mass spectra of the average molecular weight of peptides are shown in the insert. Black solid lines accentuate fractions from which the peptides were isolated. Figure S2: 1H NMR spectra of HCRG1 (a) and HCRG7 (b). Figure S3. […]

[3] = system: cultured neurons of the dorsal horn of the spinal cord; conditions: cited from earlier work
From the text: Activated P2X7 has also been reported to alter reactive oxygen species (ROS) in microglia/macrophages as was shown, for example, in primary rat microglial cells. In cultured neurons of the dorsal horn of the spinal ...

[4] = target: T1, hP2X7 (47–334 a.a., extracellular domain, 36.8 kDa) (Homo sapiens, UniProt Q99572); test: Surface plasmon resonance (Biacore 3000); type: binding; conditions: model: binding 1:1 (Langmuir), 25 °C, HBS-N pH 7.4, n = 3
T1 construct: hP2X7 (47–334 a.a., extracellular domain, 36.8 kDa); purchased Abbexa LTD, Cambridge, UK abx167020
T1 sequence (Q99572 47-334): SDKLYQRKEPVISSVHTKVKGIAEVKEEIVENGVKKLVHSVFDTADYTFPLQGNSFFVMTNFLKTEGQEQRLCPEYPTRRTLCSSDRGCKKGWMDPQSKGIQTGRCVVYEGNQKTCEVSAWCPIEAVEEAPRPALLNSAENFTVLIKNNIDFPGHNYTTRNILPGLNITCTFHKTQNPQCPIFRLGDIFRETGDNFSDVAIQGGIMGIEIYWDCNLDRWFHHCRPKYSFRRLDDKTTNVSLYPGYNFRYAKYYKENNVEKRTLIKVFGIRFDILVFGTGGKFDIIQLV
Procedure: SPR analysis was performed at 25 °C using a Biacore® 3000 optical biosensor (GE Healthcare, Chicago, IL, USA) and CM5 sensor chips. HBS-N (10 mM HEPES, 150 mM NaCl, pH 7.4) (Cytiva, Chicago, IL, USA) was used as a working buffer for the immobilization of hP2X7 (47–334 a.a., extracellular domain, 36.8 kDa) (abx167020 Abbexa LTD, Cambridge, UK). The carboxyl groups of the dextran biosensor chip were activated for 5 min by introducing a 1:1 mixture of 0.2 M 1-ethyl-3-(3-dimethylaminopropyl)carbodiimide hydrochloride (EDC) and 0.05 M N-hydroxysuccinimide (NHS) at a rate of 5 µL/min followed by a 1 min wash with HBS-N buffer at the same flow rate. Next, hP2X7 (15 μg/mL) in 10 mM sodium acetate (pH 5.0) was injected into the working channel of the biosensor for 10 min at a flow rate of 5 μL/min. The final level of immobilization was 12300 RU (12.3 ng of protein). The control channel without immobilized P2X7R was used to correct the effects of the nonspecific binding of analytes to the chip surface.
Lyophilized peptides were prepared as 100 μM stock solutions in HBS-N buffer. Experimental peptide samples were prepared in the range of 5–100 μM. The samples were injected through the channels of the biosensor (working and reference) at a flow rate of 10 μL/min for 6 min. The dissociation of the formed peptide/P2X7 complexes was recorded for at least 6 min from the moment of injection at the same flow rate after the injection of the sample. After each cycle of the biosensor, the bound analyte was removed by double injection of the regenerating solution (2 M NaCl, 1% CHAPS) at a flow rate of 30 μL/min for 30 s.
SPR sensorgrams were processed in Biacore 3000 Evaluation Software v.1.0 (GE Healthcare, Chicago, IL, USA) and BIAevaluation Software v. 4.1.1 (GE Healthcare, Chicago, IL, USA) using “1:1 binding (Langmuir)” and “two-state binding (conformational change)” data processing models.
The 1:1 (Langmuir) binding model is a 1:1 interaction model between a compound (C) and an immobilized protein (P) and is equivalent to the Langmuir isotherm for surface adsorption: C + P ↔ CP.
The two-state binding (conformational change) model describes the 1:1 binding of a compound (C) to an immobilized protein (P) followed by a conformational change in the complex (CP ↔ CP*). It is assumed that the conformationally changed complex can dissociate only by the reverse conformational change: C + P ↔ CP ↔ CP*. The final kinetic parameters were obtained from the models that best agree with the experimental curves for the minimum of the obtained value of chi2. The equations describing the models used are as follows: • (1) 1:1 (Langmuir) binding: Kd = koff/kon, where Kd is the equilibrium dissociation constant, koff is the dissociation rate constant, kon is the association rate constant. • (2) Reaction of two states (with conformational change): Kd = koff1/kon1 × (1 + kon2/koff2) − 1, where Kd is the equilibrium dissociation constant, koff1 is the dissociation rate constant, kon1 is the association rate constant, kon2 is the direct association rate constant for the CP ↔ transition CP*, koff2 is the inverse dissociation rate constant for the CP ↔ CP* transition.
The model describing the interaction was chosen according to the lowest chi2 parameter’s value. Chi2 is a measure of the average squared residual between the experimental data and the fitted curve.

[5] = target: T2, hP2X7 (47-334 a.a., extracellular domain, 36.8 kDa) (human) (UniProt Q99572)
T2 sequence: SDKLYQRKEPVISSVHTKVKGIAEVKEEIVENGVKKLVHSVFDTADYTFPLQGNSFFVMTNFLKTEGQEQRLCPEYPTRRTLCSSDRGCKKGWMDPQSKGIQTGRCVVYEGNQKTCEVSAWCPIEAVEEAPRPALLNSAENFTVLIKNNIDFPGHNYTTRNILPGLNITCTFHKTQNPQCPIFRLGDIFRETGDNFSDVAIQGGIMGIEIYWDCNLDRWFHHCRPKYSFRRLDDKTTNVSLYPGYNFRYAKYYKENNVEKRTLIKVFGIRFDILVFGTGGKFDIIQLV

[6] = target: T2, hP2X7 (47-334 a.a., extracellular domain, 36.8 kDa) (human); remark: listed apart in the source
[7] = target: T2, hP2X7 (47-334 a.a., extracellular domain, 36.8 kDa) (human); test: SPR; Biacore 3000, hP2X7 extracellular domain amine-coupled to a CM5 chip (12300 RU), peptides 5-100 uM injected as analytes at 10 uL/min for 6 min, 25 °C, HBS-N (10 mM HEPES, 150 mM NaCl, pH 7.4); fitted with 1:1 Langmuir or two-state (conformational change) model; set-up: kon2 (two-state model, step CP to CP*): unit not given here

Nc1ncnc2c1ncn2[C@@H]1O[C@H](COP(=O)(O)OP(=O)(O)OP(=O)(O)O)[C@@H](O)[C@H]1O [ATP, adenosine triphosphate, reference compound]
increase in percentage of dead cells vs cells without ATP (Neuro-2a cells [1]): up to 40% | intracellular Ca2+ after ATP (P2X7 in Neuro-2a cells): strong sustained increase in [Ca^2+]I | [Ca2+]i response to ATP in Ca2+-free medium (Neuro-2a cells [2]; 1 mM ATP, Ca2+-free medium): did not cause an increase in [Ca^2+]I

CC(C)(C)c1cc(O)c(C(C)(C)C)cc1O [BHQ, 2,5,-di(t-butyl) hydroquinone]
[Ca2+]i in Ca-free medium (Neuro-2a cells [2]): led to a significant increase in [Ca^2+]I

CC(C)(C)[N+]([O-])=Cc1ccccc1 [N-tert-butyl-α-phenylnitrone]
ATP or Bz-ATP-induced ROS production [3]: eliminated

C[C@H](CCC(=O)O)C[C@H](C)C[C@H](C)C(=O)/C=C(\O)[C@H](C)C[C@H](C)C/C=C/[C@@H](C)[C@@H](O)[C@@H](C)[C@@H](O)C[C@@H]1CC[C@@](C)([C@H]2CC[C@@](C)([C@@H](C)O)O2)O1 [ionomycin]
[Ca2+]i in Ca-free medium (Neuro-2a cells [2]): led to a significant increase in [Ca^2+]I

GSICLEPKVVGPCTAYLRRFYFDSETGKCTPFIYGGCEGNGNNFETLRACRAICRA (disulfide 4-54, 13-37, 29-50) [HCGS1.10]
Kd [4]: 26.3 µM | koff ([4]; same value printed under koff1 and koff2, average ± SD): (4.5 ± 0.52) × 10^−3 c^−1 | kon ([4]; same value printed under kon1 and kon2, average ± SD): (1.71 ± 0.19) × 10^2 mole^−1c^−1

HCGS1.10 (peptide)
decrease of the 1 mM ATP-induced rise in intracellular Ca2+ (Fluo-8AM) in mouse Neuro-2a cells with endogenous P2X7, peptide 0.1-10 uM pre-incubated 30 min; value at 0.1 uM [5]: 43.8%

HCGS1.19 (peptide)
4 mM ATP-induced uptake of YO-PRO-1 by mouse Neuro-2a cells (P2X7 macropore), peptide 0.01-10 uM pre-incubated 10 min; dye uptake reduced to the printed percent [6]: 56.2% | decrease of the 1 mM ATP-induced rise in intracellular Ca2+ (Fluo-8AM) in mouse Neuro-2a cells with endogenous P2X7, peptide 0.1-1 uM pre-incubated 30 min [5]: 54.8%

HCGS1.36 (peptide)
4 mM ATP-induced uptake of YO-PRO-1 by mouse Neuro-2a cells (P2X7 macropore), peptide 0.01-10 uM pre-incubated 10 min; dye uptake reduced to the printed percent [6]: 47.8% | decrease of the 1 mM ATP-induced rise in intracellular Ca2+ (Fluo-8AM) in mouse Neuro-2a cells with endogenous P2X7, peptide 0.1-1 uM pre-incubated 30 min [5]: 53.9%

HCRG1 (peptide)
koff1 (two-state model, step CP to C + P) [7]: 0.0437 c^−1 | koff2 (two-state model, step CP* to CP) [7]: 0.0015 c^−1 | kon1 (two-state model, step C + P to CP) [7]: 920 mole^−1c^−1 | kon2 (two-state model, step CP to CP*) [7]: 0.0085 | decrease of the 1 mM ATP-induced rise in intracellular Ca2+ (Fluo-8AM) in mouse Neuro-2a cells with endogenous P2X7, peptide 0.1-10 uM pre-incubated 30 min; value at 0.1 uM [5]: 57.5%

B1: APHC3 (peptide)
chain: GSICLEPKVVGPCTAYFPRFYFNSETGKCTPFIYGGCEGNGNNFETLRACRGICRA
decrease of the 1 mM ATP-induced rise in intracellular Ca2+ (Fluo-8AM) in mouse Neuro-2a cells with endogenous P2X7, peptide 0.1-10 uM pre-incubated 30 min; value at 0.1 uM [5]: 53.2%
